Measured values from publication PMC5974087, “The RPAP3-Cterminal domain identifies R2TP-like quaternary chaperones” (Nature Communications, 2018).

Molecular target: T1, recombinant RUVBL1-RUVBL2 complex (His_RUVBL1_Flag_RUVBL2) (human, UniProt Q9Y265 1-456; Q9Y230 1-463)
T1 construct: Purified predominantly as a dodecamer; hetero-hexamers and hetero-dodecamers in native MS; the SPR fit counts one hexamer; The methods tell different things of the RUVBL2 tag (N-terminal FLAG with TEV site; 3xFLAG in the NMR methods); also called RUVBL1/2; RUVBL1/2 hetero-multimers; source: E. coli (DE3), co-expressed, purified (HisTrap, anti-Flag M2 gel, Superdex S200, Superose 6); not shown: …
Assay: SPR; RPAP3-Cter amine-coupled on CM5; RUVBL1-RUVBL2 complex injected, 10 concentrations up to 75.2 nM; 20 mM NaKPi pH 7.5, 150 mM NaCl, 5 mM MgCl2, 1 mM DTT, 0.05% P20; 25 °C; 1:1 Langmuir model counting one hexamer of RUVBL1/2; Biacore 4000
Settings: both partners purified

T1 sequence (Q9Y265 whole entry, chain 1 of 2): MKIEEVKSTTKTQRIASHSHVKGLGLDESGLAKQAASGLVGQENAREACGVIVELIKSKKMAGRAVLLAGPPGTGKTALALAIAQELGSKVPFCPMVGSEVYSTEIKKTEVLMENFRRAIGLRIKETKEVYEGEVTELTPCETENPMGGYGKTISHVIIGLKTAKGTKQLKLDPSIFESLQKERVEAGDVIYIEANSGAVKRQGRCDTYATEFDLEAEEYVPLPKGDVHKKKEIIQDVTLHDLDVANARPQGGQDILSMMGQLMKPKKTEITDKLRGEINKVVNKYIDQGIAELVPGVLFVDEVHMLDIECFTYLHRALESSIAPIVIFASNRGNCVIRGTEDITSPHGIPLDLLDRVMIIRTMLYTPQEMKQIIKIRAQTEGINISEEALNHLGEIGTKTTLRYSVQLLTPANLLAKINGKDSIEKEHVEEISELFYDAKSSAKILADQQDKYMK
T1 sequence (Q9Y230 whole entry, chain 2 of 2): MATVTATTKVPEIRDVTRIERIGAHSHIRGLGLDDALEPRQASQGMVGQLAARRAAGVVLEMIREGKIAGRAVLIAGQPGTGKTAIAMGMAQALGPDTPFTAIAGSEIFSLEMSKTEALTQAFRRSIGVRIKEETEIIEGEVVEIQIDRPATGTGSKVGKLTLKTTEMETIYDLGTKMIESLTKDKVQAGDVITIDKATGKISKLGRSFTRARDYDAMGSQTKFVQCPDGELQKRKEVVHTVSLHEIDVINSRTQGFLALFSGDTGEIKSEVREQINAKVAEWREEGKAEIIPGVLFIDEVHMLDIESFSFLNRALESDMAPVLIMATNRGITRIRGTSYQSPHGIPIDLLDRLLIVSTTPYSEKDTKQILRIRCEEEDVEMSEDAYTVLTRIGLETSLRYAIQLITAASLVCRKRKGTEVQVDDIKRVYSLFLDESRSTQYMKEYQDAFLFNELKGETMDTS

B1: RPAP3_(535-665), C-terminal domain of human RPAP3 (domain or fragment, UniProt Q9H6T3 535-665, looked up)
chain: AQFATTVLPPIPANSFQLESDFRQLKSSPDMLYQYLKQIEPSLYPKLFQKNLDPDVFNQIVKILHDFYIEKEKPLLIFEILQRLSELKRFDMAVMFMSETEKKIARALFNHIDKSGLKDSSVEELKKRYGG
modifications: 13C/15N isotope labelling in the NMR samples
notes: RPAP3, human, residues 535-665; numbering of isoform 1; Vector pnEA-3CH; also called RPAP3-Cter; RPAP3 C-terminal domain; source: E. coli (DE3) pRARE2, purified (TALON, HRV-3C cleavage, S75 size exclusion)
Kd: 4.18 nM | koff: 0.00112 s⁻¹ | kon: 297000 M⁻¹ s⁻¹
